Reference: publication PMC12650144, “Interactive Role of the DHPR β1a SH3 Domain in Skeletal Muscle Excitation–Contraction Coupling” (Biomolecules, 2025)

B1: α1s II–III loop C region peptide (residues 720–765) (peptide, UniProt P07293 720-765, looked up)
peptide: LKVDEFESNVNEVKDPYPSADFPGDDEEDEPEIPVSPRPRPLAELQ
notes: DHPR α1s subunit, II-III loop C region, residues 720-765 of NP_001095190.1 (skeletal); also called α1s C; skeletal II-III loop C region; source: synthetic peptide
B2: α1c II–III loop C region peptide (residues 851–895) (peptide, UniProt P15381-1 851-895, looked up)
peptide: INMDDLQPNESEDKSPYPNPETTGEEDEEEPEMPVGPRPRPLSEL
notes: DHPR α1c subunit (cardiac, CaV1.2), II-III loop C region, residues 851-895 of NP_001129994.1 (cardiac); also called α1c C; cardiac II-III loop C region; source: synthetic peptide
B3: DHPR α1s II-III loop (domain or fragment, UniProt P07293 666-791, looked up)
chain: EAESLTSAQKAKAEERKRRKMSRGLPDKTEEEKSVMAKKLEQKPKGEGIPTTAKLKVDEFESNVNEVKDPYPSADFPGDDEEDEPEIPVSPRPRPLAELQLKEKAVPIPEASSFFIFSPTNKVRVL
notes: DHPR α1s subunit (CaV1.1), cytoplasmic II-III loop, residues E666-L791 of NCBI X05921 (methods); the results say residues 666-790 of NP_001095190; Methods: E666-L791; results: 666-790; also called α1s DHPR II-III Loop; DHPR II-III loop; source: E. coli BL21, purified (Ni-agarose, ubiquitin removed, preparative electrophoresis); not shown: polyhistidine-tagged ubiquitin, N-terminal, cleaved

Each binder was assayed against T1, DHPR β1a subunit, full length (mouse, UniProt Q8R3Z5-4 1-524) (assay: other fluorescence titration; tryptophan fluorescence quenching: intrinsic fluorescence of the β subunit or β1a-SH3 domain in the cuvette (sub-micromolar; 50 nM β1a-FL for the AID titration) monitored while titrating the II-III loop or peptides; excitation 280 nm, emission 340 nm; corrected for dilution and intrinsic fluorescence of the titrant; nonlinear regression). Settings: both partners purified.
T1 construct: mouse voltage-gated calcium channel (DHPR) β1a subunit, NCBI NM_031173, full length; also called β1a-FL; full-length β1a; source: E. coli BL21, purified (Ni-agarose, ubiquitin removed, preparative electrophoresis); not shown: polyhistidine-tagged ubiquitin, N-terminal, cleaved
T1 sequence (Q8R3Z5 other isoform, or with tags, fused parts or gaps): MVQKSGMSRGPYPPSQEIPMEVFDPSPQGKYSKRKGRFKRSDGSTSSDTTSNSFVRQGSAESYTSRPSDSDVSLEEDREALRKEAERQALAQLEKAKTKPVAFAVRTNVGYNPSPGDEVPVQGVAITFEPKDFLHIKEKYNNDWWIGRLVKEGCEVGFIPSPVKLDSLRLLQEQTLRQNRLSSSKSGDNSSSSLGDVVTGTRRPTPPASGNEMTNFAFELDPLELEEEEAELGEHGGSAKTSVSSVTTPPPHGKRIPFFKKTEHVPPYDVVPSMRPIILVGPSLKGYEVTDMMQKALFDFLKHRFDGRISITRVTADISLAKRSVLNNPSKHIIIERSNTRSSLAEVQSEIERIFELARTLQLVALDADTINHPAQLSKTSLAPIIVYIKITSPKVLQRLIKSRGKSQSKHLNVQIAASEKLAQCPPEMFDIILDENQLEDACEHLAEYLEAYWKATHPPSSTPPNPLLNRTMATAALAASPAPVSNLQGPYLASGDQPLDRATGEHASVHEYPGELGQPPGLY

Kd [µM]	Binder
4.9 ± 0.6	B1
3.5 ± 0.4	B2
2.5 ± 0.4	B3

Each binder was assayed against T2, DHPR β1a SH3 domain (β1a residues V101-P272) (mouse, UniProt Q8R3Z5-4 101-272) in the same assay as above. Settings: both partners purified.
T2 construct: mouse DHPR β1a subunit, NCBI NM_031173, residues V101-P272 (split SH3 domain with the hook region); also called β1a–SH3 Domain (Residues 101–272); β1a SH3 protein; not shown: polyhistidine-tagged ubiquitin, N-terminal, cleaved
T2 sequence (Q8R3Z5 other isoform, or with tags, fused parts or gaps): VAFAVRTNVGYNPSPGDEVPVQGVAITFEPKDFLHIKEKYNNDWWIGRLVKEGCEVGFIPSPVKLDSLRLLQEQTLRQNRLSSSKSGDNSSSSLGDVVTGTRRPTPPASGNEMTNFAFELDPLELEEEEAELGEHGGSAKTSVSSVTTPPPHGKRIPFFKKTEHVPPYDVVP

Kd [µM]	Binder
3.6 ± 0.6	B1
2.5 ± 0.2	B2
2.6 ± 0.2	B3
